Measured values as given in patent publication US11672767.

Experiments:
BMP2-PxSPCP NPs = biological target: T1, BMP2-PxSPCP NPs (UniProt P12643)
T1 sequence 1: CGGKGGKFKTGG
T1 sequence 2: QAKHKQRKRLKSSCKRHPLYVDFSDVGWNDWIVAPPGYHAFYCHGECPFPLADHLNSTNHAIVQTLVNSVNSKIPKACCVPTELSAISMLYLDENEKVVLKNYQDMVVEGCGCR

BMP2-P5SPCP NPs = biological target: T2, BMP2-P5SPCP NPs (UniProt P12643)
T2 sequence 1: CGGKGGKFKTGG
T2 sequence 2: T1 sequence 2

BMP2-PxSPCP NPs, P12643 = biological target: T3, BMP2-PxSPCP NPs, P12643
T3 chain 1: CGGKGGKFKTGG
T3 chain 2: T1 sequence 2

plasmin
release of BMP2 from NPs co-encapsulated with plasmin in LPELA hydrogel, measured by BMP2 ELISA (BMP2-PxSPCP NPs): gradually released to the medium with incubation time at a rate faster than BMP2-PxSP NPs but slower than the free BMP2
cumulative release of BMP2 from NPs co-encapsulated with plasmin in LPELA hydrogel, measured by BMP2 ELISA (BMP2-P5SPCP NPs): the cumulative release of BMP2 from the encapsulated BMP2-P5SPCP NPs was 60% after 21 days

B1: plasmin secreted by the encapsulated cells (hMSCs) (protein)
chain: KVYLSECKTGNGKNYRGTMSKTKNGITCQKWSSTSPHRPRFSPATHPSEGLEENYCRNPDNDPQGPWCYTTDPEKRYDYCDILECEEECMHCSGENYDGKISKTMSGLECQAWDSQSPHAHGYIPSKFPNKNLKKNYCRNPDRELRPWCFTTDPNKRWELCDIPRCTTPPPSSGPTYQCLKGTGENYRGNVAVTVSGHTCQHWSAQTPHTHNRTPENFPCKNLDENYCRNPDGKRAPWCHTTNSQVRWEYCKIPSCDSSPVSTEQLAPTAPPELTPVVQDCYHGDGQSYRGTSSTTTTGKKCQSWSSMTPHRHQKTPENYPNAGLTMNYCRNPDADKGPWCFTTDPSVRWEYCNLKKCSGTEASVVAPPPVVLLPDVETPSEEDCMFGNGKGYRGKRATTVTGTPCQDWAAQEPHRHSIFTPETNPRAGLEKNYCRNPDGDVGGPWCYTTNPRKLYDYCDVPQCAAPSFDCGKPQVEPKKCPGRVVGGCVAHPHSWPWQVSLRTRFGMHFCGGTLISPEWVLTAAHCLEKSPRPSSYKVILGAHQEVNLEPHVQEIEVSRLFLEPTRKDIALLKLSSPAVITDKVIPACLPSPNYVVADRTECFITGWGETQGTFGAGLLKEAQLPVIENKVCNRYEFLNGRVQSTELCAGHLAGGTDSCQGDSGGPLVCFEKDKYILQGVTSWGLGCARPNKPGVYVRVSRFVTWIEGVMRNN
osteogenic activity (peak RUNX2 expression) of hMSCs co-encapsulated with the NPs (BMP2-PxSPCP NPs, P12643): The BMP2-PxSPCP NP groups showed significantly higher osteogenic activity compared to non-cleavable BMP2-PxSP NPs
